Measurements from the supplement of paper PMC5998384.

How the values were obtained:
HeLa Kyoto [1] = assay: solubility in G1/S (NP-40 vs SDS abundance) (log2 ratio); higher = more soluble; conditions: cell cycle stage: G1/S
HeLa Kyoto [2] = assay: melting temperature (median over replicates), in situ; higher = more thermally stable
HeLa Kyoto [3] = assay: solubility change mitosis vs G1/S (difference of NP-40 vs SDS log2 ratios) (log2 ratio difference); higher = more soluble in mitosis
HeLa Kyoto [4] = assay: thermal stability score vs G1/S (z-score of summed log2 fold changes over temperatures); higher = more thermally stable than in G1/S
[5] = cell cycle stage: early G1 (4.5 h after nocodazole release)
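For melting temperature (median over replicates), in situ in this document: HeLa Kyoto cells synchronized by double thymidine or nocodazole block, proteins quantified by TMT10plex mass spectrometry, three independent biological replicates.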
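For solubility change mitosis vs G1/S (difference of NP-40 vs SDS log2 ratios) in this document: synchronized HeLa Kyoto cells (double thymidine block for G1/S, nocodazole release for mitosis), protein amounts in NP-40 versus SDS lysates quantified by mass spectrometry, three biological replicates.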
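For solubility in G1/S (NP-40 vs SDS abundance) in this document: HeLa Kyoto cells arrested at G1/S by double thymidine block, proteins quantified by TMT10plex mass spectrometry in mild NP-40 versus SDS extracts, three biological replicates.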
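For thermal stability score vs G1/S (z-score of summed log2 fold changes over temperatures) in this document: synchronized HeLa Kyoto cells, proteins quantified by TMT10plex mass spectrometry, three biological replicates, mitosis taken 0.5 h after nocodazole release, G1/S directly after double thymidine block.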

| Substance | solubility in G1/S (log2) (HeLa Kyoto [1]) | melting temperature (HeLa Kyoto [2]; cell cycle stage: G1/S) [°C] | melting temperature (HeLa Kyoto [2]; cell cycle stage: mitosis) [°C] | solubility change mitosis (log2) (HeLa Kyoto [3]) | thermal stability score (HeLa Kyoto [4]; [5]) | thermal stability score (HeLa Kyoto [4]; cell cycle stage: mitosis) |
| --- | --- | --- | --- | --- | --- | --- |
| MWGSDRLAGAGGGGAAVTVAFTNARDCFLHLPRRLVAQLHLLQNQAIEVVWSHQPAFLSWVEGRHFSDQGENVAEINRQVGQKLGLSNGGQVFLKPCSHVVSCQQVEVEPLSADDWEILELHAVSLEQHLLDQIRIVFPKAIFPVWVDQQTYIFIQIVALIPAASYGRLETDTKLLIQPKTRRAKENTFSKADAEYKKLHSYGRDQKGMMKELQTKQLQSNTVGITESNENESEIPVDSSSVASLWTMIGSIFSFQSEKKQETSWGLTEINAFKNMQSKVVPLDNIFRVCKSQPPSIYNASATSVFHKHCAIHVFPWDQEYFDVEPSFTVTYGKLVKLLSPKQQQSKTKQNVLSPEKEKQMSEPLDQKKIRSDHNEEDEKACVLQVVWNGLEELNNAIKYTKNVEVLHLGKVWIPDDLRKRLNIEMHAVVRITPVEVTPKIPRSLKLQPRENLPKDISEEDIKTVFYSWLQQSTTTMLPLVISEEEFIKLETKDGLKEFSLSIVHSWEKEKDKNIFLLSPNLLQKTTIQVLLDPMVKEENSEEIDFILPFLKLSSLGGVNSLGVSSLEHITHSLLGRPLSRQLMSLVAGLRNGALLLTGGKGSGKSTLAKAICKEAFDKLDAHVERVDCKALRGKRLENIQKTLEVAFSEAVWMQPSVVLLDDLDLIAGLPAVPEHEHSPDAVQSQRLAHALNDMIKEFISMGSLVALIATSQSQQSLHPLLVSAQGVHIFQCVQHIQPPNQEQRCEILCNVIKNKLDCDINKFTDLDLQHVAKETGGFVARDFTVLVDRAIHSRLSRQSISTREKLVLTTLDFQKALRGFLPASLRSVNLHKPRDLGWDKIGGLHEVRQILMDTIQLPAKYPELFANLPIRQRTGILLYGPPGTGKTLLAGVIARESRMNFISVKGPELLSKYIGASEQAVRDIFIRAQAAKPCILFFDEFESIAPRRGHDNTGVTDRVVNQLLTQLDGVEGLQGVYVLAATSRPDLIDPALLRPGRLDKCVYCPPPDQVSRLEILNVLSDSLPLADDVDLQHVASVTDSFTGADLKALLYNAQLEALHGMLLSSGLQDGSSSSDSDLSLSSMVFLNHSSGSDDSAGDGECGLDQSLVSLEMSEILPDESKFNMYRLYFGSSYESELGNGTSSDLSSQCLSAPSSMTQDLPGVPGKDQLFSQPPVLRTASQEGCQELTQEQRDQLRADISIIKGRYRSQSGEDESMNQPGPIKTRLAISQSHLMTALGHTRPSISEDDWKNFAELYESFQNPKRRKNQSGTMFRPGQKVTLA [PEX1] | -0.083 | 51.2 | 50.6 | -0.0568 | -0.296 | -0.803 |
| MAEGNHRKKPLKVLESLGKDFLTGVLDNLVEQNVLNWKEEEKKKYYDAKTEDKVRVMADSMQEKQRMAGQMLLQTFFNIDQISPNKKAHPNMEAGPPESGESTDALKLCPHEEFLRLCKERAEEIYPIKERNNRTRLALIICNTEFDHLPPRNGADFDITGMKELLEGLDYSVDVEENLTARDMESALRAFATRPEHKSSDSTFLVLMSHGILEGICGTVHDEKKPDVLLYDTIFQIFNNRNCLSLKDKPKVIIVQACRGANRGELWVRDSPASLEVASSQSSENLEEDAVYKTHVEKDFIAFCSSTPHNVSWRDSTMGSIFITQLITCFQKYSWCCHLEEVFRKVQQSFETPRAKAQMPTIERLSMTRYFYLFPGN [CASP4] | 0.0521 | – | 50.5 | -0.0831 | 0.457 | 0.45 |
| MAETSEEVAVLVQRVVKDITNAFRRNPHIDEIGLIPCPEARYNRSPIVLVENKLGVESWCVKFLLPYVHNKLLLYRTRKQWLNRDELIDVTCTLLLLNPDFTTAWNVRKELILSGTLNPIKDLHLGKLALTKFPKSPETWIHRRWVLQQLIQETSLPSFVTKGNLGTIPTERAQRLIQEEMEVCGEAAGRYPSNYNAWSHRIWVLQHLAKLDVKILLDELSSTKHWASMHVSDHSGFHYRQFLLKSLISQTVIDSSVMEQNPLRSEPALVPPKDEEAAVSTEEPRINLPHLLEEEVEFSTDLIDSYPGHETLWCHRRHIFYLQHHLNAGSQLSQAMEVDGLNDSSKQGYSQETKRLKRTPVPDSLGLEMEHRFIDQVLSTCRNVEQARFASAYRKWLVTLSQ [PTAR1] | 0.0716 | 53 | 52.1 | -0.125 | -1.63 | -2.24 |
| MSTGGDFGNPLRKFKLVFLGEQSVGKTSLITRFMYDSFDNTYQATIGIDFLSKTMYLEDRTVRLQLWDTAGQERFRSLIPSYIRDSTVAVVVYDITNVNSFQQTTKWIDDVRTERGSDVIIMLVGNKTDLADKRQVSIEEGERKAKELNVMFIETSAKAGYNVKQLFRRVAAALPGMESTQDRSREDMIDIKLEKPQEQPVSEGGCSC [RAB6A] | -0.0491 | 56.5 | 57.1 | -0.0808 | -2.97 | -6.05 |
| MAAQSSLYNDDRNLLRIREKERRNQEAHQEKEAFPEKIPLFGEPYKTAKGDELSSRIQNMLGNYEEVKEFLSTKSHTHRLDASENRLGKPKYPLIPDKGSSIPSSSFHTSVHHQSIHTPASGPLSVGNISHNPKMAQPRTEPMPSLHAKSCGPPDSQHLTQDRLGQEGFGSSHHKKGDRRADGDHCASVTDSAPERELSPLISLPSPVPPLSPIHSNQQTLPRTQGSSKVHGSSNNSKGYCPAKSPKDLAVKVHDKETPQDSLVAPAQPPSQTFPPPSLPSKSVAMQQKPTAYVRPMDGQDQAPSESPELKPLPEDYRQQTFEKTDLKVPAKAKLTKLKMPSQSVEQTYSNEVHCVEEILKEMTHSWPPPLTAIHTPSTAEPSKFPFPTKDSQHVSSVTQNQKQYDTSSKTHSNSQQGTSSMLEDDLQLSDSEDSDSEQTPEKPPSSSAPPSAPQSLPEPVASAHSSSAESESTSDSDSSSDSESESSSSDSEENEPLETPAPEPEPPTTNKWQLDNWLTKVSQPAAPPEGPRSTEPPRRHPESKGSSDSATSQEHSESKDPPPKSSSKAPRAPPEAPHPGKRSCQKSPAQQEPPQRQTVGTKQPKKPVKASARAGSRTSLQGEREPGLLPYGSRDQTSKDKPKVKTKGRPRAAASNEPKPAVPPSSEKKKHKSSLPAPSKALSGPEPAKDNVEDRTPEHFALVPLTESQGPPHSGSGSRTSGCRQAVVVQEDSRKDRLPLPLRDTKLLSPLRDTPPPQSLMVKITLDLLSRIPQPPGKGSRQRKAEDKQPPAGKKHSSEKRSSDSSSKLAKKRKGEAERDCDNKKIRLEKEIKSQSSSSSSSHKESSKTKPSRPSSQSSKKEMLPPPPVSSSSQKPAKPALKRSRREADTCGQDPPKSASSTKSNHKDSSIPKQRRVEGKGSRSSSEHKGSSGDTANPFPVPSLPNGNSKPGKPQVKFDKQQADLHMREAKKMKQKAELMTDRVGKAFKYLEAVLSFIECGIATESESQSSKSAYSVYSETVDLIKFIMSLKSFSDATAPTQEKIFAVLCMRCQSILNMAMFRCKKDIAIKYSRTLNKHFESSSKVAQAPSPCIASTGTPSPLSPMPSPASSVGSQSSAGSVGSSGVAATISTPVTIQNMTSSYVTITSHVLTAFDLWEQAEALTRKNKEFFARLSTNVCTLALNSSLVDLVHYTRQGFQQLQELTKTP [AFF1] | -0.222 | 49.6 | 51.8 | 0.121 | 0.0483 | -0.483 |
| WDR48 | -0.162 | 52.5 | 53.9 | -0.036 | 3.81 | 2.36 |
| MPGRAPLRTVPGALGAWLLGGLWAWTLCGLCSLGAVGAPRPCQAPQQWEGRQVMYQQSSGRNSRALLSYDGLNQRVRVLDERKALIPCKRLFEYILLYKDGVMFQIDQATKQCSKMTLTQPWDPLDIPQNSTFEDQYSIGGPQEQITVQEWSDRKSARSYETWIGIYTVKDCYPVQETFTINYSVILSTRFFDIQLGIKDPSVFTPPSTCQMAQLEKMSEDCSW [EPDR1] | 0.348 | 56.1 | 55 | -0.162 | -1.3 | -2.65 |
| MDLLQFLAFLFVLLLSGMGATGTLRTSLDPSLEIYKKMFEVKRREQLLALKNLAQLNDIHQQYKILDVMLKGLFKVLEDSRTVLTAADVLPDGPFPQDEKLKDAFSHVVENTAFFGDVVLRFPRIVHYYFDHNSNWNLLIRWGISFCNQTGVFNQGPHSPILSLMAQELGISEKDSNFQNPFKIDRTEFIPSTDPFQKALREEEKRRKKEEKRKEIRKGPRISRSQSEL [CCDC134] | 0.505 | 51.7 | 53.3 | 0.012 | 1.83 | 1.3 |
| MHPAVFLSLPDLRCSLLLLVTWVFTPVTTEITSLDTENIDEILNNADVALVNFYADWCRFSQMLHPIFEEASDVIKEEFPNENQVVFARVDCDQHSDIAQRYRISKYPTLKLFRNGMMMKREYRGQRSVKALADYIRQQKSDPIQEIRDLAEITTLDRSKRNIIGYFEQKDSDNYRVFERVANILHDDCAFLSAFGDVSKPERYSGDNIIYKPPGHSAPDMVYLGAMTNFDVTYNWIQDKCVPLVREITFENGEELTEEGLPFLILFHMKEDTESLEIFQNEVARQLISEKGTINFLHADCDKFRHPLLHIQKTPADCPVIAIDSFRHMYVFGDFKDVLIPGKLKQFVFDLHSGKLHREFHHGPDPTDTAPGEQAQDVASSPPESSFQKLAPSEYRYTLLRDRDEL [ERP44] | 0.277 | 53.9 | 54.1 | -0.0724 | 5.67 | 6.88 |
| MAASEAAVVSSPSLKTDTSPVLETAGTVAAMAATPSARAAAAVVAAAARTGSEARVSKAALATKLLSLSGVFAVHKPKGPTSAELLNRLKEKLLAEAGMPSPEWTKRKKQTLKIGHGGTLDSAARGVLVVGIGSGTKMLTSMLSGSKRYTAIGELGKATDTLDSTGRVTEEKPYDKITQEDIEGILQKFTGNIMQVPPLYSALKKDGQRLSTLMKRGEVVEAKPARPVTVYSISLQKFQPPFFTLDVECGGGFYIRSLVSDIGKELSSCANVLELTRTKQGPFTLEEHALPEDKWTIDDIAQSLEHCSSLFPAELALKKSKPESNEQVLSCEYITLNEPKREDDVIKTC [TRUB1] | 0.549 | 50.2 | 50.2 | -0.0378 | 1.48 | 1.46 |
| MEGPGLGSQCRNHSHGPHPPGFGRYGICAHENKELANAREALPLIEDSSNCDIVKATQYGIFERCKELVEAGYDVRQPDKENVSLLHWAAINNRLDLVKFYISKGAVVDQLGGDLNSTPLHWAIRQGHLPMVILLLQHGADPTLIDGEGFSSIHLAVLFQHMPIIAYLISKGQSVNMTDVNGQTPLMLSAHKVIGPEPTGFLLKFNPSLNVVDKIHQNTPLHWAVAAGNVNAVDKLLEAGSSLDIQNVKGETPLDMALQNKNQLIIHMLKTEAKMRANQKFRLWRWLQKCELFLLLMLSVITMWAIGYILDFNSDSWLLKGCLLVTLFFLTSLFPRFLVGYKNLVYLPTAFLLSSVFWIFMTWFILFFPDLAGAPFYFSFIFSIVAFLYFFYKTWATDPGFTKASEEEKKVNIITLAETGSLDFRTFCTSCLIRKPLRSLHCHVCNCCVARYDQHCLWTGRCIGFGNHHYYIFFLFFLSMVCGWIIYGSFIYLSSHCATTFKEDGLWTYLNQIVACSPWVLYILMLATFHFSWSTFLLLNQLFQIAFLGLTSHERISLQKQSKHMKQTLSLRKTPYNLGFMQNLADFFQCGCFGLVKPCVVDWTSQYTMVFHPAREKVLRSV [ZDHHC13] | 0.0826 | 51.6 | 51.4 | -0.158 | -0.948 | -1.02 |
| MAHCVTLVQLSISCDHLIDKDIGSKSDPLCVLLQDVGGGSWAELGRTERVRNCSSPEFSKTLQLEYRFETVQKLRFGIYDIDNKTPELRDDDFLGGAECSLGQIVSSQVLTLPLMLKPGKPAGRGTITVSAQELKDNRVVTMEVEARNLDKKDFLGKSDPFLEFFRQGDGKWHLVYRSEVIKNNLNPTWKRFSVPVQHFCGGNPSTPIQVQCSDYDSDGSHDLIGTFHTSLAQLQAVPAEFECIHPEKQQKKKSYKNSGTIRVKICRVETEYSFLDYVMGGCQINFTVGVDFTGSNGDPSSPDSLHYLSPTGVNEYLMALWSVGSVVQDYDSDKLFPAFGFGAQVPPDWQVSHEFALNFNPSNPYCAGIQGIVDAYRQALPQVRLYGPTNFAPIINHVARFAAQAAHQGTASQYFMLLLLTDGAVTDVEATREAVVRASNLPMSVIIVGVGGADFEAMEQLDADGGPLHTRSGQAAARDIVQFVPYRRFQNAPREALAQTVLAEVPTQLVSYFRAQGWAPLKPLPPSAKDPAQAPQA [CPNE1] | 0.146 | 52 | 51.9 | -0.134 | 0.0462 | 0.0377 |
